Measurements reported in PMC7666581, “Atypical chemoreceptor arrays accommodate high membrane curvature” (Nature Communications, 2020).

Tests used:
CheR (classical Td CheR) = biological target: T1, CheR (classical Td CheR) (Treponema denticola, UniProt Q73PZ7); experiment: isothermal titration calorimetry; type: binding
T1 construct: purified CheR; cloning and tag not described in main text; printed residues R79, Gly152, Val180, Y218
T1 sequence (Q73PZ7 1-271): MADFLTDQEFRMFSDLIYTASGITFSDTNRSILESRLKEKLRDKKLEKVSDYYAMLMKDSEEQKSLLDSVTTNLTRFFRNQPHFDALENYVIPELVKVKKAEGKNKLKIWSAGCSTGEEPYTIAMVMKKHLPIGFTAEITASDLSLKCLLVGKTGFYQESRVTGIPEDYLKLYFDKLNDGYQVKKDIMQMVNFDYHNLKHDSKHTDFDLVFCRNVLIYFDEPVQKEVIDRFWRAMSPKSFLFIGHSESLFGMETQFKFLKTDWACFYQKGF

[1] = biological target: T2, CheW-CheRlike (CheW-Rlike) (Treponema denticola, UniProt F7IUZ1); experiment: isothermal titration calorimetry; type: binding
T2 construct: gene cheW-1; full-length fusion: N-terminal CheW domain, 28-residue linker, C-terminal CheR-like domain; poly-His tag (pET28a), E. coli BL21(DE3); mainly monomer
T2 sequence (F7IUZ1 1-444): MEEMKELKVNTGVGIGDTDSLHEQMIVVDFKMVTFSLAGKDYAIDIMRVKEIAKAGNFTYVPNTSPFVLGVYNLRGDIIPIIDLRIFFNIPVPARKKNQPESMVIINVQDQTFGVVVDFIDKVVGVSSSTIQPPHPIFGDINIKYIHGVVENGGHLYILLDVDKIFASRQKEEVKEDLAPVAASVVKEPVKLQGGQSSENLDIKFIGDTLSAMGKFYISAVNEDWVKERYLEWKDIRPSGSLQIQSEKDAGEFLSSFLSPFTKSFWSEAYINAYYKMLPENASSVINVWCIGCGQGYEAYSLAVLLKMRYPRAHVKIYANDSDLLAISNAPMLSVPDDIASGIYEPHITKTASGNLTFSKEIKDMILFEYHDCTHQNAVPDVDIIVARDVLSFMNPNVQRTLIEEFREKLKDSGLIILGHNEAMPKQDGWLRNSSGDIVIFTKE

[2] = biological target: Treponema denticola histidine kinase CheA (Treponema denticola) (UniProt O85747); experiment: SEC-MALS; 25 °C; each sample 10 mg/mL; 50 mM MOPS pH 7.5, 150 mM KCl, 5 mM MgCl2; mixed sample 1:1 molar CheA:CheW-R_(like); CheW-R_(like) pre-incubated 15 min with 5 mM DTT; GE S200 Increase (10/300)
[3] = biological target: the molecule itself; experiment: as above
[4] = biological target: the molecule itself; experiment: crystal structure; isolated P3 domain at 32 mg/ml, hanging drop, 0.1 M Imidazole pH 7.0, 25% PEG 400; data cut off at 1.5 Å

## C[S+](CC[C@H](N)C(=O)O)C[C@H]1O[C@@H](n2cnc3c(N)ncnc32)[C@H](O)[C@@H]1O (some centres unmarked) [S-adenosylmethionine]
CheR (classical Td CheR)
  Kd: 20 ± 3.7 µM
[1]
  Kd: 8.8 ± 1.9 µM

## Treponema denticola CheW-CheR_(like) protein (TDE1492) (natural protein)
[2]
  stoichiometry N (CheW-R subunit per CheA dimer): 1

B1: Treponema denticola histidine kinase CheA (enzyme, UniProt O85747 1-801, looked up)
chain: MSDYLDINNEELLKDFFSEAEQQVEILESNVLVIEQNPEDRNSIDEIFRAAHTLKGGSATVEMLELSKFTHAMEDLLDEIRSGSVKVTGETVDLLLKSIDIIKLMLDARASGSIYSDDVSGIVNQLRSFIPAKAEKKSSKASAPKVSIPASVSPVSAPKVQASASNLDIKDYFSEYEILELAETIQKGEDLYAVIVKFDESNLMNSVGGIQVFAALKDYGSVLKTVPDFDALYEDEFHETVIYFLSSASDSKILEKAAFIGDVTLSASAERLDIKDKTPESPKPAKAAPAQSAPEASVSEVKVSEKTEEKPVQESKEQPSKPEKKQSQTSPQGSGHSSGSILRVDANRIDYLLNLVSETVITKASLNQSTIEFAELYDKFQNSSTIYKDKTRRLLDKMPEYLEKIQQGYDINSIKQDVLNEYSSLLEVFGDFDSLMKAAVTKFKSSSQNLGRISGELQEGVMKIRMVPISQIFSRFPRVVRDLSRDLNKNVQLVIEGEDTELDKSVVEDLLDPIMHCVRNSLDHGVESPEVRKGLGKPEQGILLLKASNEGNMIVIEVADDGHGIDVEAVKQKAVERGILHPNKSLTDVEAFQLVFAPGFSTSKTISSVSGRGVGLDVVKTHIEKLNGTVMVESEPNVGTRFIIKLPLTLAIIQGLLIRVGDEVYSIPITSVIESHRVKPDEINRIDNYEVFNVRDEVYSLLRLNRLFGITSAETDDDGYNYIVVVGTEEKKVGLMVDSLIGEEAVVIKPLKDQFTNSPGIAGASILGDGSVSLIIDVAQLLELGLKQEMQARERREASIW
notes: Histidine kinase CheA of Treponema denticola ATCC 35405, the only CheA homolog in the genome; amplified from Td genomic DNA; Cloned NdeI/BamHI into pet28a; co-transcribed with TDE1492; also called Td CheA; CheA-F2; source: E. coli BL21-DE3, purified (Nickel-NTA, size exclusion)
[3]
  stoichiometry N: 2

B2: Treponema denticola CheA P3 domain (dimerization domain) (domain or fragment)
chain: SILRVDANRIDYLLNLVSETVITKASLNQSTIEFAELYDKFQNSSTIYKDKTRRLLDKMPEYLEKIQQGYDINSIKQDVLNEYSSLLEVFGDFDSLMKAAVTKFKSSSQNLGRISGELQEGVMKIRMVP
notes: P3 (dimerization) domain of Treponema denticola CheA, with about 50 additional residues joining the canonical P3 helices; Cloned NdeI/EcoRI into pet28a; The printed residue number Tyr83 probably counts on the deposited construct and not on whole CheA; also called Td P3 domain; isolated P3 domain; source: E. coli BL21-DE3, purified (Nickel-NTA, size exclusion)
[4]
  binding result: binds
